The values below come from publication PMC2528576.

The target in this assay is respiratory complex IV (S. cerevisiae (endogenous in yeast mitochondria)) (UniProt P00410). The assay can be described thus: co-IP.
Sequence of UniProt P00410 (P00410 whole entry, looked up, one chain of several): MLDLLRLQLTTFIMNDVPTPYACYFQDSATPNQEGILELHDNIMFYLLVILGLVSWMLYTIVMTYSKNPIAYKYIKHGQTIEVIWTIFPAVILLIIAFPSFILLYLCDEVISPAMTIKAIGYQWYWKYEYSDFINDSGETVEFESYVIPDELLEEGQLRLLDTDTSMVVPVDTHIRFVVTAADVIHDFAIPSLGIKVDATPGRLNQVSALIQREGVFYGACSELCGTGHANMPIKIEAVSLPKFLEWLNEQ

For “AAC2, the major ADP/ATP carrier (endogenous) (from UniProt P18239 1-318) (natural protein)”, the percent of the total AAC2 content associated with the respiratory supercomplex is 0.5 to 1%.
